According to paper PMC9519624:

Biological target: IPO11 (Importin-11) (UniProt Q9UI26)
Test: co-immunoprecipitation, western blot
Settings: reference: wild-type RPRM; sites S98

Substance: RPRM (Reprimo) (from UniProt Q9NS64) RPRM S98A
- binding against the reference: stronger
